B1: Arl15-AL-Myc [human] / GST-Smad4 [not stated] (parent complex)
chain 1: MSDLRITEAFLYMDYLCFRALCCKGPPPARPEYDLVCIGLTGSGKTSLLSKLCSESPDNVVSTTGFSIKAVPFQNAILNVKELGGLDNIRKYWSRYYQGSQGVIFVLDSASSEDDLEAARNELHSALQHPQLCTLPFLILANHQDKPAARSVQEIKKYFELEPLARGKRWILQPCSLDDMDALKDSFSQLINLLEEKDHEAVRM
chain 2: MDNMSITNTPTSNDACLSIVHSLMCHRQGGESETFAKRAIESLVKKLKEKKDELDSLITAITTNGAHPSKCVTIQRTLDGRLQVAGRKGFPHVIYARLWRWPDLHKNELKHVKYCQYAFDLKCDSVCVNPYHYERVVSPGIDLSGLTLQSNAPSSMMVKDEYVHDFEGQPSLSTEGHSIQTIQHPPSNRASTETYSTPALLAPSESNATSTANFPNIPVASTSQPASILGGSHSEGLLQIASGPQPGQQQNGFTGQPATYHHNSTTTWTGSRTAPYTPNLPHHQNGHLQHHPPMPPHPGHYWPVHNELAFQPPISNHPAPEYWCSIAYFEMDVQVGETFKVPSSCPIVTVDGYVDPSGGDRFCLGQLSNVHRTEAIERARLHIGKGVQLECKGEGDVWVRCLSDHAVFVQSYYLDREAGRAPGDAVHKIYPSAYIKVFDLRQCHRQMQQQAATAQAAAAAQAAAVAGNIPGPGSVGGIAPAISLSAAAGIGVDDLRRLCILRMSFVKGWGPDYPRQSIKETPCWIEIHLHRALQLLDEVLHTMPIADPQPLD
B2: GFP-Smad4-WT [not stated] / GST-Arl15-AL [human] (parent complex)
chain 1: B1 chain 2
chain 2: B1 chain 1

Variants of: B1
Experiment: GST pull-down, immunoblot band quantification; HeLa cell lysates; bead-immobilized GST-Smad4; parent: 100

percent of parent	Variant
93	chain 1 D58N
87	chain 1 R150H

Variants of: B2
Experiment: GST pull-down, immunoblot band quantification; HEK293T cell lysates; bead-immobilized GST-Arl15-AL; n=3; parent: 1; read off a plot

Variant	ratio to parent
chain 1 D493H	~0.9
chain 1 A532D	~0.2
chain 1 L495P	~1.3
chain 1 E538K	~0.29
chain 1 H541Y	~0.37

Continued, values first:

ratio to parent	Variant
~1	chain 1 R497H
~1.1	chain 1 R496H
~1.1	chain 1 M447K

From PMC9352346 (2022)
